# From PMC10619557, “Crystal Structures of 6-Phosphogluconate Dehydrogenase from Corynebacterium glutamicum” (Journal of Microbiology and Biotechnology, 2023)
# Key:
# purified protein [1] = substrate: O=C(O)[C@H](O)[C@@H](O)[C@H](O)[C@H](O)COP(=O)(O)O; experiment: purified protein; format: biochemical, Corynebacterium glutamicum; conditions: 6PG 0.1-5 mM, 2 mM NADP, 40 mM Tris-HCl pH 8.0, 20 °C
# purified protein [2] = substrate: NC(=O)c1ccc[n+]([C@@H]2O[C@H](COP(=O)(O)OP(=O)(O)OC[C@H]3O[C@@H](n4cnc5c(N)ncnc54)[C@H](OP(=O)(O)O)[C@@H]3O)[C@@H](O)[C@H]2O)c1; experiment: purified protein; format: biochemical, Corynebacterium glutamicum; conditions: NADP 0.01-2 mM, 5 mM 6PG, 40 mM Tris-HCl pH 8.0, 20 °C, varied: cofactor
protein,measurement,setting,value
"Cg6PGD (Corynebacterium glutamicum ATCC 13032) (protein, full length, 484 residues (Met1-Ala484), C-terminal His6 (pET-30a), E. coli BL21(DE3)-T1R) MTNGDNLAQIGVVGLAVMGSNLARNFARNGNTVAVYNRSTDKTDKLIADHGSEGNFIPSATVEEFVASLEKPRRAIIMVQAGNATDAVINQLADAMDEGDIIIDGGNALYTDTIRREKEISARGLHFVGAGISGGEEGALNGPSIMPGGPAKSYESLGPLLESIAANVDGTPCVTHIGPDGAGHFVKMVHNGIEYADMQVIGEAYHLLRYAAGMQPAEIAEVFKEWNAGDLDSYLIEITAEVLSQVDAETGKPLIDVIVDAAGQKGTGRWTVKAALDLGIATTGIGEAVFARALSGATSQRAAAQGNLPAGVLTDLEALGVDKAQFVEDVRRALYASKLVAYAQGFDEIKAGSDENNWDVDPRDLATIWRGGCIIRAKFLNRIVEAYDANAELESLLLDPYFKSELGDLIDSWRRVIVTATQLGLPIPVFASSLSYYDSLRAERLPAALIQGQRDFFGAHTYKRIDKDGSFHTEWSGDRSEVEA",Km,purified protein [1],340.8 ± 30 µM
same,kcat,purified protein [1],19 ± 0.452 s⁻¹
same,kcat/Km,purified protein [1],55700 M⁻¹ s⁻¹
same,Km,purified protein [2],162.8 ± 9.5 µM
same,kcat,purified protein [2],17.1 ± 0.282 s⁻¹
same,kcat/Km,purified protein [2],105000 M⁻¹ s⁻¹
